Data from the RNAGym collection of RNA variant scans (doi:10.1073/pnas.2313332121).

B1: TPR t1 (parent)
chain: GACCAAUCUGCCCUCAGAGCUCGAGAACAUCUUCGGAUGCAGAGGAGGCAGGCUUCGGUGGCGCGAUAGCGCCAACGUCCUCAACCUCCAAUGCAUCCCACCACAUGAUGAUGCCUGAAGAGCCUUGGUUUUUUG

Variants of: B1
Assay: polymerase ribozyme fitness, log enrichment relative to wild type (log ratio); higher = more active; in vitro selection for triplet polymerase activity
How it was run: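 To select mutant libraries of each subunit of a heterodimeric triplet polymerase ribozyme, built by PCR and transcribed, each was annealed with a biotinylated primer, partner subunit and triplets, then incubated frozen at −7 °C. Extended constructs were gel-excised, captured on streptavidin beads and amplified by RT-PCR, in one round carried out in triplicate. Illumina sequencing of input and output libraries kept genotypes with ≥10 input reads and ≥1 read per output. Fitness is the base-2 logarithm of genotype enrichment relative to wild-type enrichment, from inverse-variance-weighted replicate averages.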

Variant	polymerase ribozyme fitness (log ratio)
C4G C12A C15A C73U C94A C99U G110C	-7.24
U9A G35A	-3.25
C40A A41U G57C C104U C114U	-3.33
G63C A66U G77C A91C C94A	-6.25
U9C G51C U81G U92C	-5.89
C40A C56A C73U A84C	-2.23
C8A C11A C22A U32G U33C C34A C40G C72U A100U C115U	-6.9
A26G C94G A105C C123G	-5.27
C70G U106A	-2.52
A2C C3G G52U G60A U129A	-5.23
A6G A121C	2.2
A5C C115U G120A G122A U134G	-4.36
C56A C72U G110A G122U	-2.87
C80A U96C	-3.2
U59C C102A C115G	-4.44
C22A C53A G110C U131A	-5.4
G71C C85U U92C	-4.52
C40G C64U U81A	-2.3
G110C A118U	-4.26
A50U G61A	-1.36
C13U G60U	-0.0139

Variant	polymerase ribozyme fitness (log ratio)
C49U C123G G128C	-1.69
A26U G69C	-4.28
C115A G120U	-0.0245
C12U A27C C62A A83U	-6.02
C49G G69U	-0.396
C15U G42A G48A C79U A105C U112A G113U C124A	-4.71
G52U G57U G128C	-4.79
G63A U96G C124U	0.174
A29U A46C G48A A84C	-3.31
C70U A74U C86A	-4.13
A26G U112G	-0.342
G39U C114U G120A G127C	-2.98
C13A U96A	-2.64
G19C G63A U87C	-3.24
A29G G58C	-1.5
A2G A74U C89G U112A	-1.32
A41G A95G C114U	-2.64
C22A G36A C56U	-5.8
U9G C34U	-3.92
C20U A27G C72A C82U A84G U116C	-7.5
G39U G93A C123A	-1.36

Variant	polymerase ribozyme fitness (log ratio)
A5U A29G A46G C82G G120A	-1.34
G39U G60C	-0.892
C73U G117A G120U	-2.36
C115U U116C	-2.06
A2C C12G	-1.09
A5C C72A U96A G127A	-2.31
A29C C62G	-4.52
U7G C20U	-1.37
C13G G44U C82A	-3.4
A2C G39U	-2.12
U7G C98U	-0.713
U38C G44U A91U G120U	-2.19
C85U A108U C123G	-6.32
A18U A50U C99G A100C A108U C124G	-8.04
C8U G48U A50U G69U C86U U96A	-1.23
A5U C20A C40A G113C C115U	-4.07
A26U U32C C94A	-4.33
C28U G57U C86A A90G G93U U96G G113C A121U	-7.69
C11U G71C	-0.699
C12A G45C G63U	-2.35
A5U C13G C72A C73U U106C	-3.49

Variant	polymerase ribozyme fitness (log ratio)
U14A A37U G52A U59C	-3.31
G48C G71A	-1.65
C40G U59A	-1.68
C82A A103G	-4.08
A83G A84U C102A U112A G127U	-3.04
C20G U78C U109G	-3.79
G60C C72U	-0.882
C104U G120C	0.802
C13G A37G G71U C102G A103U U112A G117U G127C U130G	-6.56
C62U U125A	-1.11
G52U U112A U126G	-0.97
A2C G42C U96A C123U	-3.31
A5C G19A C89A C124G	-1.76
A2U C11U G45A U81C	-6.34
U9A U32A A37U A46C C56A C79A A111G	-7.29
G48A C56U G93C C94G	-5.23
A43C G45C G63C G117U A118U G135A	-5.43
C13U G61A	-0.508
G52C	-0.632
A16C	-2.19
